According to article PMC7899134 (Cell, 2021):

B7: human p40 (23-328), crystallography construct (natural protein)
chain: IWELKKDVYVVELDWYPDAPGEMVVLTCDTPEEDGITWTLDQSSEVLGSGKTLTIQVKEFGDAGQYTCHKGGEVLSHSLLLLHKKEDGIWSTDILKDQKEPKNKTFLRCEAKNYSGRFTCWWLTTISTDLTFSVKSSRGSSDPQGVTCGAATLSAERVRGDNKEYEYSVECQEDSACPAAEESLPIEVMVDAVHKLKYENYTSSFFIRDIIKPDPPKNLQLKPLKNSRQVEVSWEYPDTWSTPHSYFSLTFCVQVQGKSKREKKDRVFTDKTSATVICRKNASISVRAQDRYYSSSWSEWASVPCS
B8: human IL-23R (1–315), crystallography construct (domain or fragment, UniProt Q5VWK5-1 24-315, looked up)
chain: GITNINCSGHIWVEPATIFKMGMNISIYCQAAIKNCQPRKLHFYKNGIKERFQITRINKTTARLWYKNFLEPHASMYCTAECPKHFQETLICGKDISSGYPPDIPDEVTCVIYEYSGNMTCTWNAGKLTYIDTKYVVHVKSLETEEEQQYLTSSYINISTDSLQGGKKYLVWVQAANALGMEESKQLQIHLDDIVIPSAAVISRAETINATVPKTIIYWDSQTTIEKVSCEMRYKATTNQTWNVKEFDTNFTYVQQSEFYLEPNIKYVFQVRCQETGKRYWQPWSSLFFHKT

How the values were obtained:
[1] = target: B8; test: crystal structure
[2] = target: T1, human IL-12Rβ1 D1–D2 (25–239) (human, UniProt P42701 25-239); test: SPR
[3] = target: affi-IL-12Rβ1 D1–D5 (25–542) Tyr109Ser Gln132Leu (human, UniProt P42701 25-542, Tyr109Ser | Gln132Leu); test: cryo-EM structure
human IL-23R (1–309) = target: T2, human IL-23R (1–309) (human, UniProt Q5VWK5-1 24-309); test: cryo-EM structure
T2 sequence (looked up): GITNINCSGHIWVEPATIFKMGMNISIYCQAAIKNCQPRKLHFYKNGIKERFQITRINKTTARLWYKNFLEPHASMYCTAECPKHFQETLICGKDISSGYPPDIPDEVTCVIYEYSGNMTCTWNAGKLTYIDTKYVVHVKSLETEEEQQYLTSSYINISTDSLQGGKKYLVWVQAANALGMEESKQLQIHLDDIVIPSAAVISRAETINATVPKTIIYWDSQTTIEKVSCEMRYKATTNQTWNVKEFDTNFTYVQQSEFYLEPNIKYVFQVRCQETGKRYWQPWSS

[4] = target: affi-IL-12Rβ1 D1–D2 (25–239) Tyr109Ser Gln132Leu (human, UniProt P42701 25-239, Tyr109Ser | Gln132Leu); test: SPR
[5] = target: T1, human IL-12Rβ1 D1–D2 (25–239); test: crystal structure
[6] = target: T3, IL-23 (IL-23p19/p40), crystallography construct (human, UniProt Q9NPF7 20-189; P29460 23-328); test: crystal structure
T3 sequence (looked up) 1: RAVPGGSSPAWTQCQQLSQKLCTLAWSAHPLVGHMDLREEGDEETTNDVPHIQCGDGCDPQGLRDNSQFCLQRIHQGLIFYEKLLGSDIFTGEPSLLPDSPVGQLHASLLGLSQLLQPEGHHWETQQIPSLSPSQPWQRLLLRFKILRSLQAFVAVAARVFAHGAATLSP
T3 sequence (looked up) 2: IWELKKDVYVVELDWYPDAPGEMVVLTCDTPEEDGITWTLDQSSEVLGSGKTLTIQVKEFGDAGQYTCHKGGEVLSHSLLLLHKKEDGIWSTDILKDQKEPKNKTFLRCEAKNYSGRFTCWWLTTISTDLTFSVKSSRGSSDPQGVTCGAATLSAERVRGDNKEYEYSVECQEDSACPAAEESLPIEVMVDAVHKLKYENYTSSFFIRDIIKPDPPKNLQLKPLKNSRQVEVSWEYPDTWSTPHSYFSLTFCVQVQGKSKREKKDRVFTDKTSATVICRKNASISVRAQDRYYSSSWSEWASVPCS

[7] = target: B7; test: crystal structure

B1: human IL-23p19 (20-189), crystallography construct (natural protein, UniProt Q9NPF7 20-189, looked up)
chain: RAVPGGSSPAWTQCQQLSQKLCTLAWSAHPLVGHMDLREEGDEETTNDVPHIQCGDGCDPQGLRDNSQFCLQRIHQGLIFYEKLLGSDIFTGEPSLLPDSPVGQLHASLLGLSQLLQPEGHHWETQQIPSLSPSQPWQRLLLRFKILRSLQAFVAVAARVFAHGAATLSP
- binding result [1]: binds

B2: IL-23 (IL-23p19 and p40), biotinylated, SPR construct (complex)
chain 1: PAWTQCQQLSQKLCTLAWSAHPLVGHMDLREEGDEETTNDVPHIQCGDGCDPQGLRDNSQFCLQRIHQGLIFYEKLLGSDIFTGEPSLLPDSPVGQLHASLLGLSQLLQPEGHHWETQQIPSLSPSQPWQRLLLRFKILRSLQAFVAVAARVFAHGAATLSP
chain 2: IWELKKDVYVVELDWYPDAPGEMVVLTCDTPEEDGITWTLDQSSEVLGSGKTLTIQVKEFGDAGQYTCHKGGEVLSHSLLLLHKKEDGIWSTDILKDQKEPKNKTFLRCEAKNYSGRFTCWWLTTISTDLTFSVKSSRGSSDPQGVTCGAATLSAERVRGDNKEYEYSVECQEDSACPAAEESLPIEVMVDAVHKLKYENYTSSFFIRDIIKPDPPKNLQLKPLKNSRQVEVSWEYPDTWSTPHSYFSLTFCVQVQGKSKREKKDRVFTDKTSATVICRKNASISVRAQDRYYSSSWSEWASVPCS
modifications: biotin on the AviTag (BirA ligase)
- binding result [2]: binds

B3: IL-23 (IL-23p19 28–189 / p40 23–328 with BirA substrate peptide), T. ni expressed (complex, human)
chain 1: PAWTQCQQLSQKLCTLAWSAHPLVGHMDLREEGDEETTNDVPHIQCGDGCDPQGLRDNSQFCLQRIHQGLIFYEKLLGSDIFTGEPSLLPDSPVGQLHASLLGLSQLLQPEGHHWETQQIPSLSPSQPWQRLLLRFKILRSLQAFVAVAARVFAHGAATLSP
chain 2: IWELKKDVYVVELDWYPDAPGEMVVLTCDTPEEDGITWTLDQSSEVLGSGKTLTIQVKEFGDAGQYTCHKGGEVLSHSLLLLHKKEDGIWSTDILKDQKEPKNKTFLRCEAKNYSGRFTCWWLTTISTDLTFSVKSSRGSSDPQGVTCGAATLSAERVRGDNKEYEYSVECQEDSACPAAEESLPIEVMVDAVHKLKYENYTSSFFIRDIIKPDPPKNLQLKPLKNSRQVEVSWEYPDTWSTPHSYFSLTFCVQVQGKSKREKKDRVFTDKTSATVICRKNASISVRAQDRYYSSSWSEWASVPCS
modifications: biotinylated in vitro for the yeast staining
- binding result [3]: binds

B4: human IL-23p19 (28–189), T. ni expressed (natural protein, UniProt Q9NPF7 28-189, looked up)
chain: PAWTQCQQLSQKLCTLAWSAHPLVGHMDLREEGDEETTNDVPHIQCGDGCDPQGLRDNSQFCLQRIHQGLIFYEKLLGSDIFTGEPSLLPDSPVGQLHASLLGLSQLLQPEGHHWETQQIPSLSPSQPWQRLLLRFKILRSLQAFVAVAARVFAHGAATLSP
- binding result (human IL-23R (1–309)): binds

B5: human p40 (23–328) with BirA substrate peptide, T. ni expressed (natural protein, UniProt P29460 23-328, looked up)
chain: IWELKKDVYVVELDWYPDAPGEMVVLTCDTPEEDGITWTLDQSSEVLGSGKTLTIQVKEFGDAGQYTCHKGGEVLSHSLLLLHKKEDGIWSTDILKDQKEPKNKTFLRCEAKNYSGRFTCWWLTTISTDLTFSVKSSRGSSDPQGVTCGAATLSAERVRGDNKEYEYSVECQEDSACPAAEESLPIEVMVDAVHKLKYENYTSSFFIRDIIKPDPPKNLQLKPLKNSRQVEVSWEYPDTWSTPHSYFSLTFCVQVQGKSKREKKDRVFTDKTSATVICRKNASISVRAQDRYYSSSWSEWASVPCS
- binding result [3]: binds

B6: human p40 (23–328) alone, biotinylated, SPR construct (natural protein, UniProt P29460 23-328, looked up)
chain: IWELKKDVYVVELDWYPDAPGEMVVLTCDTPEEDGITWTLDQSSEVLGSGKTLTIQVKEFGDAGQYTCHKGGEVLSHSLLLLHKKEDGIWSTDILKDQKEPKNKTFLRCEAKNYSGRFTCWWLTTISTDLTFSVKSSRGSSDPQGVTCGAATLSAERVRGDNKEYEYSVECQEDSACPAAEESLPIEVMVDAVHKLKYENYTSSFFIRDIIKPDPPKNLQLKPLKNSRQVEVSWEYPDTWSTPHSYFSLTFCVQVQGKSKREKKDRVFTDKTSATVICRKNASISVRAQDRYYSSSWSEWASVPCS
modifications: biotin on the AviTag (BirA ligase)
- binding result [4]: binds
- binding result [2]: binds

Binder: B7
- binding result [5]: binds

Binder: B8
- binding result [6]: binds
- binding result [7]: binds
